The chains are these.
T1: human IL-2 receptor (IL-2Rα/IL-2Rβ/γc) (human, UniProt P01589 22-272; P14784 27-551; P31785 23-369)
T1 sequence 1: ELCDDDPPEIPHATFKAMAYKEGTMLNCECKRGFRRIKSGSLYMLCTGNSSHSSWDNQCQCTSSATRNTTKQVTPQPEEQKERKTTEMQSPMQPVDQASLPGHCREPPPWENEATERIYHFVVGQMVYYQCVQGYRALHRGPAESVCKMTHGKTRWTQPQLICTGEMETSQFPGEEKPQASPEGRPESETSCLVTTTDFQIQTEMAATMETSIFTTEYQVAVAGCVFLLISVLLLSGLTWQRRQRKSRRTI
T1 sequence 2: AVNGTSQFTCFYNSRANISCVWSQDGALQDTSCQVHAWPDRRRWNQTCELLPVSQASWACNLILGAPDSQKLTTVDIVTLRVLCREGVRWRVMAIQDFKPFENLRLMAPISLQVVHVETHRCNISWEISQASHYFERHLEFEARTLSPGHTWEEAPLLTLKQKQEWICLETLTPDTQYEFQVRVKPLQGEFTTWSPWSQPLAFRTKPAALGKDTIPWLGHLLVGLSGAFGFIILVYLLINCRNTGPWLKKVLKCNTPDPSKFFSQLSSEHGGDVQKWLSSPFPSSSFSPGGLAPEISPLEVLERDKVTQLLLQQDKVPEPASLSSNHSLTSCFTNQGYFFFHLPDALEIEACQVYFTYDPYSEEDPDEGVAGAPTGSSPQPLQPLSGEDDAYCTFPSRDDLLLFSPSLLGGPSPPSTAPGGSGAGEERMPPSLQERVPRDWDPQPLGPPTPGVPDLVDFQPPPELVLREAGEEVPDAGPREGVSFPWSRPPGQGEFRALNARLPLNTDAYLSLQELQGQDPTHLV
T1 sequence 3: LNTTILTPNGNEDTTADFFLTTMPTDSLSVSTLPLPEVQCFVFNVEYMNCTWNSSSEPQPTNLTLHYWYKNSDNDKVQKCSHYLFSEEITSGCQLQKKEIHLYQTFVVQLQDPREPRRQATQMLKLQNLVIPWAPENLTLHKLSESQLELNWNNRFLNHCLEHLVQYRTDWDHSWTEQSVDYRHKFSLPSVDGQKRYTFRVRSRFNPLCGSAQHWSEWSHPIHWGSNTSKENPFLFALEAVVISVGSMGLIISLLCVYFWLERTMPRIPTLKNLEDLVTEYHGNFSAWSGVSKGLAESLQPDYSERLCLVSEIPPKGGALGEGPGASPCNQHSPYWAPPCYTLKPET

B1: DC00053 (other)
chain 1: QVQLVESGGGLVQPGGSLRLSCATSGFTFRNNFMSWVRQAPGKGLEWVSTISYGGESTTYAESVKGRFTISRDNAKNTLYLQMNNLKPEDTAVYYCAKATSYDSIRSGSRGQGTQVTVSSGGGGSGGGGSGGGGSEVQLVESGGGLVQTGGSLRLSCAASGGTFSRDAMAWFRQVPGKEREFVALISWSGATTNYADSVKGRFAISRDNGKNTVYLQMNRLKPADTAIYYCAADRRPMGSRSYFEPTEYDDWGQGTQVTVSSGGGGSGGGGSGGGGSDKTHTCPPCPAPEAAGGPSVFLFPPKPKDTLMISRTPEVTCVVVDVSHEDPEVKFNWYVDGVEVHNAKTKPREEQYNSTYRVVSVLTVLHQDWLNGKEYKCKVSNKALGAPIEKTISKAKGQPREPQVYTLPPSRDELTKNQVSLTCLVKGFYPSDIAVEWESNGQPENNYKTTPPVLDSDGSFLLYSKLTVDKSRWQQGNVFSCSVMHEALHNHYTQKSLSLSPGK
chain 2: EVQLVESGGGLVQTGGSLRLSCAASGGTFSRDAMAWFRQVPGKEREFVALISWSGATTNYADSVKGRFAISRDNGKNTVYLQMNRLKPADTAIYYCAADRRPMGSRSYFEPTEYDDWGQGTQVTVSSGGGGSGGGGSGGGGSQVQLVESGGGLVQPGGSLRLSCATSGFTFRNNFMSWVRQAPGKGLEWVSTISYGGESTTYAESVKGRFTISRDNAKNTLYLQMNNLKPEDTAVYYCAKATSYDSIRSGSRGQGTQVTVSSGGGGSGGGGSGGGGSQVQLVESGGGLVQAGGSLTLSCAAPGRTFGTDVVGWFRQAPGKEREFVASISRSGDGIYYDDSVKGRFTISRNNAWNTVNLQMNSLKVEDTAVYYCAAGDGWSTYDYWGQGTQVTVSSGGGGSGGGGSGGGGSDKTHTCPPCPAPEAAGGPSVFLFPPKPKDTLMISRTPEVTCVVVDVSHEDPEVKFNWYVDGVEVHNAKTKPREEQYNSTYRVVSVLTVLHQDWLNGKEYKCKVSNKALGAPIEKTISKAKGQPREPQVYTLPPSRDELTKNQVSLTCLVKGFYPSDIAVEWESNGQPENNYKTTPPVLDSDGSFFLYSRLTVDKSRWQQGNVFSCSVMHEALHNHYTQKSLSLSPGK
B2: DC00055 (other)
chain 1: B1 chain 1
chain 2: QVQLVESGGGLVQPGGSLRLSCATSGFTFRNNFMSWVRQAPGKGLEWVSTISYGGESTTYAESVKGRFTISRDNAKNTLYLQMNNLKPEDTAVYYCAKATSYDSIRSGSRGQGTQVTVSSGGGGSGGGGSGGGGSQVQLVESGGGLVQAGGSLTLSCAAPGRTFGTDVVGWFRQAPGKEREFVASISRSGDGIYYDDSVKGRFTISRNNAWNTVNLQMNSLKVEDTAVYYCAAGDGWSTYDYWGQGTQVTVSSGGGGSGGGGSGGGGSEVQLVESGGGLVQTGGSLRLSCAASGGTFSRDAMAWFRQVPGKEREFVALISWSGATTNYADSVKGRFAISRDNGKNTVYLQMNRLKPADTAIYYCAADRRPMGSRSYFEPTEYDDWGQGTQVTVSSGGGGSGGGGSGGGGSDKTHTCPPCPAPEAAGGPSVFLFPPKPKDTLMISRTPEVTCVVVDVSHEDPEVKFNWYVDGVEVHNAKTKPREEQYNSTYRVVSVLTVLHQDWLNGKEYKCKVSNKALGAPIEKTISKAKGQPREPQVYTLPPSRDELTKNQVSLTCLVKGFYPSDIAVEWESNGQPENNYKTTPPVLDSDGSFFLYSRLTVDKSRWQQGNVFSCSVMHEALHNHYTQKSLSLSPGK
B3: DC00058 (other)
chain 1: B1 chain 1
chain 2: QVQLVESGGGLVQAGGSLTLSCAAPGRTFGTDVVGWFRQAPGKEREFVASISRSGDGIYYDDSVKGRFTISRNNAWNTVNLQMNSLKVEDTAVYYCAAGDGWSTYDYWGQGTQVTVSSGGGGSGGGGSGGGGSEVQLVESGGGLVQTGGSLRLSCAASGGTFSRDAMAWFRQVPGKEREFVALISWSGATTNYADSVKGRFAISRDNGKNTVYLQMNRLKPADTAIYYCAADRRPMGSRSYFEPTEYDDWGQGTQVTVSSGGGGSGGGGSGGGGSQVQLVESGGGLVQPGGSLRLSCATSGFTFRNNFMSWVRQAPGKGLEWVSTISYGGESTTYAESVKGRFTISRDNAKNTLYLQMNNLKPEDTAVYYCAKATSYDSIRSGSRGQGTQVTVSSDKTHTCPPCPAPEAAGGPSVFLFPPKPKDTLMISRTPEVTCVVVDVSHEDPEVKFNWYVDGVEVHNAKTKPREEQYNSTYRVVSVLTVLHQDWLNGKEYKCKVSNKALGAPIEKTISKAKGQPREPQVYTLPPSRDELTKNQVSLTCLVKGFYPSDIAVEWESNGQPENNYKTTPPVLDSDGSFFLYSRLTVDKSRWQQGNVFSCSVMHEALHNHYTQKSLSLSPGK
B4: DC00059 (other)
chain 1: B1 chain 1
chain 2: QVQLVESGGGLVQAGGSLTLSCAAPGRTFGTDVVGWFRQAPGKEREFVASISRSGDGIYYDDSVKGRFTISRNNAWNTVNLQMNSLKVEDTAVYYCAAGDGWSTYDYWGQGTQVTVSSGGGGSGGGGSGGGGSQVQLVESGGGLVQPGGSLRLSCATSGFTFRNNFMSWVRQAPGKGLEWVSTISYGGESTTYAESVKGRFTISRDNAKNTLYLQMNNLKPEDTAVYYCAKATSYDSIRSGSRGQGTQVTVSSGGGGSGGGGSGGGGSEVQLVESGGGLVQTGGSLRLSCAASGGTFSRDAMAWFRQVPGKEREFVALISWSGATTNYADSVKGRFAISRDNGKNTVYLQMNRLKPADTAIYYCAADRRPMGSRSYFEPTEYDDWGQGTQVTVSSGGGGSGGGGSGGGGSDKTHTCPPCPAPEAAGGPSVFLFPPKPKDTLMISRTPEVTCVVVDVSHEDPEVKFNWYVDGVEVHNAKTKPREEQYNSTYRVVSVLTVLHQDWLNGKEYKCKVSNKALGAPIEKTISKAKGQPREPQVYTLPPSRDELTKNQVSLTCLVKGFYPSDIAVEWESNGQPENNYKTTPPVLDSDGSFFLYSRLTVDKSRWQQGNVFSCSVMHEALHNHYTQKSLSLSPGK
B5: DC00057 (other)
chain 1: B1 chain 1
chain 2: QVQLVESGGGLVQPGGSLRLSCATSGFTFRNNFMSWVRQAPGKGLEWVSTISYGGESTTYAESVKGRFTISRDNAKNTLYLQMNNLKPEDTAVYYCAKATSYDSIRSGSRGQGTQVTVSSGGGGSGGGGSGGGGSEVQLVESGGGLVQTGGSLRLSCAASGGTFSRDAMAWFRQVPGKEREFVALISWSGATTNYADSVKGRFAISRDNGKNTVYLQMNRLKPADTAIYYCAADRRPMGSRSYFEPTEYDDWGQGTQVTVSSGGGGSGGGGSGGGGSQVQLVESGGGLVQAGGSLTLSCAAPGRTFGTDVVGWFRQAPGKEREFVASISRSGDGIYYDDSVKGRFTISRNNAWNTVNLQMNSLKVEDTAVYYCAAGDGWSTYDYWGQGTQVTVSSGGGGSGGGGSGGGGSDKTHTCPPCPAPEAAGGPSVFLFPPKPKDTLMISRTPEVTCVVVDVSHEDPEVKFNWYVDGVEVHNAKTKPREEQYNSTYRVVSVLTVLHQDWLNGKEYKCKVSNKALGAPIEKTISKAKGQPREPQVYTLPPSRDELTKNQVSLTCLVKGFYPSDIAVEWESNGQPENNYKTTPPVLDSDGSFFLYSRLTVDKSRWQQGNVFSCSVMHEALHNHYTQKSLSLSPGK

For the test, the target named is T1, human IL-2 receptor (IL-2Rα/IL-2Rβ/γc). The experiment in a line: cell-based or functional assay.
On to B1, for which the “EC50 (nM) pSTAT5, NK, human PBMCs” value stood at 0.057 nM; the “EC50 (nM) pSTAT5, Treg, human PBMCs” value turned out to be 0.488 pM; the “Fold Max signal (% pSTAT5+) Treg/NK” value came to 7 fold; the “Max signal (% pSTAT5+), NK” value stood at 13 % pSTAT5+. The “Max signal (% pSTAT5+), Treg” value stood at 84 % pSTAT5+ and the “fold EC50 NK/Treg” value amounted to 117 fold.

As to B2, the “EC50 (nM) pSTAT5, NK, human PBMCs” value came to 0.889 nM; the “EC50 (nM) pSTAT5, Treg, human PBMCs” value was less than 0.1 pM; the “Fold Max signal (% pSTAT5+) Treg/NK” value came out at 3 fold; the “Max signal (% pSTAT5+), NK” value worked out at 34 % pSTAT5+. The “Max signal (% pSTAT5+), Treg” value worked out at 97 % pSTAT5+ and the “fold EC50 NK/Treg” value is more than 8890 fold.

In the case of B3, the “EC50 (nM) pSTAT5, NK, human PBMCs” value came to 1.87 nM; the “EC50 (nM) pSTAT5, Treg, human PBMCs” value was found to be 0.0025 nM; the “Fold Max signal (% pSTAT5+) Treg/NK” value stood at 3 fold; the “Max signal (% pSTAT5+), NK” value was 34 % pSTAT5+. Besides, the “Max signal (% pSTAT5+), Treg” value came to 97 % pSTAT5+ and the “fold EC50 NK/Treg” value was found to be 748 fold.

B4: the “EC50 (nM) pSTAT5, NK, human PBMCs” value was found to be 0.0401 nM; the “EC50 (nM) pSTAT5, Treg, human PBMCs” value is 0.252 pM; the “Fold Max signal (% pSTAT5+) Treg/NK” value turned out to be 6 fold; the “Max signal (% pSTAT5+), NK” value was found to be 14 % pSTAT5+. Further, the “Max signal (% pSTAT5+), Treg” value worked out at 86 % pSTAT5+ and the “fold EC50 NK/Treg” value amounted to 159 fold.

Take B5: the “EC50 (nM) pSTAT5, NK, human PBMCs” value was found to be 0.548 nM; the “EC50 (nM) pSTAT5, Treg, human PBMCs” value was found to be 0.00208 nM; the “Fold Max signal (% pSTAT5+) Treg/NK” value was 5 fold; the “Max signal (% pSTAT5+), NK” value was 19 % pSTAT5+. Also, the “Max signal (% pSTAT5+), Treg” value worked out at 89 % pSTAT5+ and the “fold EC50 NK/Treg” value was 263 fold.

The values above are taken from patent US20240409645A1 (DUALYX, published 2024).
